Experimental data published in patent US7696168 (TUFTS MEDICAL CENTER, dated 2010).
The star is where a group is joined. Palmitoyl = CCCCCCCCCCCCCCCC(=O)*

Experiments:
murine PAR4 = target: T1, murine PAR4 (mouse, UniProt O88634 60-396); experiment: cell-based or functional assay
T1 sequence (looked up): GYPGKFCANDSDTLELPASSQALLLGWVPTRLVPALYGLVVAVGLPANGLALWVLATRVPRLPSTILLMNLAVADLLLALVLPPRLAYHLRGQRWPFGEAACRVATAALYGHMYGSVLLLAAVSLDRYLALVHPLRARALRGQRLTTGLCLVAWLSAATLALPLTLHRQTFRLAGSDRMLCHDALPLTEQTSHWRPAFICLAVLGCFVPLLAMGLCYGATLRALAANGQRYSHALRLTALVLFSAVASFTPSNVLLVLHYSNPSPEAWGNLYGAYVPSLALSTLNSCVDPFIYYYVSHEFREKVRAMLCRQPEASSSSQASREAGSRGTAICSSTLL

PAR1 S309P mutant = target: T2, PAR1 S309P mutant (human, UniProt P25116 42-425); experiment: cell-based or functional assay
T2 sequence (looked up): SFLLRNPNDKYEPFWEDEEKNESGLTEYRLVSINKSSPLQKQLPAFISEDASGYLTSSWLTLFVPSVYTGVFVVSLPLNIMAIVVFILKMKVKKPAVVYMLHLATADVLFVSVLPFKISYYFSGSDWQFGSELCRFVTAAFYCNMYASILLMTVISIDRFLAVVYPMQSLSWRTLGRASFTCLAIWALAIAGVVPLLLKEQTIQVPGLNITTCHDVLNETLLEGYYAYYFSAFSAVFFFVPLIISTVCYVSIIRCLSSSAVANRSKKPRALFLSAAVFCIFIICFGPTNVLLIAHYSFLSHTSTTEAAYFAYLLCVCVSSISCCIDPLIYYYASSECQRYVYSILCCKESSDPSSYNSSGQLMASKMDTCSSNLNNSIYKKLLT

PAR1 delta377 mutant = PAR1 delta377 mutant (UniProt P25116)
MC4 receptor (MC4R) = MC4 receptor (MC4R) (human, UniProt P32245 1-332); experiment: cell-based or functional assay
Chain of MC4 receptor (MC4R) (P32245 whole entry): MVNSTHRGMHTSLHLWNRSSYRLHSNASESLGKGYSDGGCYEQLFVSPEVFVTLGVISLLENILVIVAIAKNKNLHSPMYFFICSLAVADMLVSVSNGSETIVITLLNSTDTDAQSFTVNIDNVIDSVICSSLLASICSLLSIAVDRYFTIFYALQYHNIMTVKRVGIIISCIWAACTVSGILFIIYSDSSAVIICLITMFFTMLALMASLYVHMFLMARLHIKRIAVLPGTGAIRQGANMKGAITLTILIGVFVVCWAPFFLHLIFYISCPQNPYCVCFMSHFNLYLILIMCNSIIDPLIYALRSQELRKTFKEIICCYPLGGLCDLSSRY

human PAR4 [1] = target: T3, human PAR4 (human, UniProt Q96RI0 48-385); experiment: cell-based or functional assay
T3 sequence (looked up): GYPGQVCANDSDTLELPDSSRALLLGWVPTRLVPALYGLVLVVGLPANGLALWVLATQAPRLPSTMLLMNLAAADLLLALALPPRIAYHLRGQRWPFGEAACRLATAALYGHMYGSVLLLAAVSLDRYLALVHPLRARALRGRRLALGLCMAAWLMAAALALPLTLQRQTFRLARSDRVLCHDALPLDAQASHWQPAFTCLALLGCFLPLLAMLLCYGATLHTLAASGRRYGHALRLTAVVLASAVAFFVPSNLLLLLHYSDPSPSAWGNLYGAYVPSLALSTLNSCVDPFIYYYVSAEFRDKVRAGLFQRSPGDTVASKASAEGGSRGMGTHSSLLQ

[2] = target: T4, human cholecystokinin A receptor (CCKA) (human, UniProt P32238 1-428); experiment: cell-based or functional assay
T4 sequence (looked up): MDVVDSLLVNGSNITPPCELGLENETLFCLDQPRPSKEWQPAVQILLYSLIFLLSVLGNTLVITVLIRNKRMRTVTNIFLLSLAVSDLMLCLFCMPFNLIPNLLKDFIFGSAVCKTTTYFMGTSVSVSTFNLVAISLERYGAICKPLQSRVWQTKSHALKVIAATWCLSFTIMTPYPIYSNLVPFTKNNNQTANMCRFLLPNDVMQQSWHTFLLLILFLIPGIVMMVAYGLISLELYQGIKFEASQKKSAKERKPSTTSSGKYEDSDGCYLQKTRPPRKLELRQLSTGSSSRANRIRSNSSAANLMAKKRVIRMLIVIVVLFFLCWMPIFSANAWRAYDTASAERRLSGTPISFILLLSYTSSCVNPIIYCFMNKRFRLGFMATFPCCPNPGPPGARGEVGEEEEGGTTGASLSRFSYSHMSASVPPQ

human PAR4 [3] = target: T3, human PAR4; experiment: cell-based or functional assay; remark: listed apart in the source
[4] = target: rat somatostatin receptor (SSTR2) (rat, UniProt P30680 1-369); experiment: cell-based or functional assay
Chain of rat somatostatin receptor (SSTR2) (P30680 whole entry): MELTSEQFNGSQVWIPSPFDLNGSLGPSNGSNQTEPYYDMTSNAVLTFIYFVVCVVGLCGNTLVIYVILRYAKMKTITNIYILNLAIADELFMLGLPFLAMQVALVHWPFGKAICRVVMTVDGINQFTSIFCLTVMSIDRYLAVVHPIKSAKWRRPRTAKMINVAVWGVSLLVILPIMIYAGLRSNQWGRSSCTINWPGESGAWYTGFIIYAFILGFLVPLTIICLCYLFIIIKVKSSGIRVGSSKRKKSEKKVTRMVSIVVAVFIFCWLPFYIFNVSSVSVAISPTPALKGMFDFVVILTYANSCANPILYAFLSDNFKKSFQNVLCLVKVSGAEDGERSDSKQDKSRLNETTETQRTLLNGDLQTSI

human PAR1 [5] = target: T5, human PAR1 (human, UniProt P25116 42-425); experiment: cell-based or functional assay
T5 sequence (looked up): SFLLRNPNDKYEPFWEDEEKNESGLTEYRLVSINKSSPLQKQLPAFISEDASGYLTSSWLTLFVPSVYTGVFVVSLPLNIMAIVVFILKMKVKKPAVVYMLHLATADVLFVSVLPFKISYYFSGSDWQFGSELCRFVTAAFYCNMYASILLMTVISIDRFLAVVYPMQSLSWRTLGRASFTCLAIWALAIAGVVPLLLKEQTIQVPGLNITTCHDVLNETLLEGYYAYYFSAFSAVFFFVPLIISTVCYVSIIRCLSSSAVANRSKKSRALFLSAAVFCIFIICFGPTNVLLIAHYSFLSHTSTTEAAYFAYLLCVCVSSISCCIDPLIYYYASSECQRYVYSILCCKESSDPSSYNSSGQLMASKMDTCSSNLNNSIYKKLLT

human PAR1 [6] = target: T5, human PAR1; experiment: cell-based or functional assay; remark: listed apart in the source

thrombin (enzyme)
EC50, aggregation of murine platelets by thrombin (murine PAR4): 0.6 nM | loss of potency against wild type PAR1 (InsP) (PAR1 S309P mutant): 17 fold

thrombin
reduction of efficacy against wild type PAR1 (PLC-beta, InsP) (PAR1 delta377 mutant): Efficacy is reduced by 2-3 fold for the two PAR1 agonists

B1: MC4pal-14 (Pal-TGAIRQGANMKGAI) (peptide)
peptide: Palmitoyl-TGAIRQGANMKGAI-NH2
SMILES: CCCCCCCCCCCCCCCC(=O)N[C@H](C(=O)NCC(=O)N[C@@H](C)C(=O)N[C@H](C(=O)N[C@@H](CCCNC(=N)N)C(=O)N[C@@H](CCC(N)=O)C(=O)NCC(=O)N[C@@H](C)C(=O)N[C@@H](CC(N)=O)C(=O)N[C@@H](CCSC)C(=O)N[C@@H](CCCCN)C(=O)NCC(=O)N[C@@H](C)C(=O)N[C@H](C(N)=O)[C@@H](C)CC)[C@@H](C)CC)[C@@H](C)O
EC50, activating phase (adenylate cyclase) (MC4 receptor (MC4R)): ~150 nM | IC50, inhibitory phase (adenylate cyclase) (MC4 receptor (MC4R)): ~10000 nM | adenylate cyclase activity relative to alpha-MSH (MC4 receptor (MC4R)): 40%

B2: P4pal-10 (Pal-SGRRYGHALR) (peptide)
peptide: Palmitoyl-SGRRYGHALR-NH2
SMILES: CCCCCCCCCCCCCCCC(=O)N[C@@H](CO)C(=O)NCC(=O)N[C@@H](CCCNC(=N)N)C(=O)N[C@@H](CCCNC(=N)N)C(=O)N[C@@H](Cc1ccc(O)cc1)C(=O)NCC(=O)N[C@@H](Cc1c[nH]cn1)C(=O)N[C@@H](C)C(=O)N[C@@H](CC(C)C)C(=O)N[C@@H](CCCNC(=N)N)C(N)=O
IC50, inhibition of platelet aggregation to AYPGKF (human PAR4 [1]): 500 to 1000 nM | inhibition of the rate of murine platelet aggregation to 3 nM thrombin, 3 µM pepducin (murine PAR4): 7 fold

B3: Apal-19F (Pal-RIRSNSSAANLMAKKRVIEF) (peptide)
peptide: Palmitoyl-RIRSNSSAANLMAKKRVIEF-NH2
SMILES: CCCCCCCCCCCCCCCC(=O)N[C@@H](CCCNC(=N)N)C(=O)N[C@H](C(=O)N[C@@H](CCCNC(=N)N)C(=O)N[C@@H](CO)C(=O)N[C@@H](CC(N)=O)C(=O)N[C@@H](CO)C(=O)N[C@@H](CO)C(=O)N[C@@H](C)C(=O)N[C@@H](C)C(=O)N[C@@H](CC(N)=O)C(=O)N[C@@H](CC(C)C)C(=O)N[C@@H](CCSC)C(=O)N[C@@H](C)C(=O)N[C@@H](CCCCN)C(=O)N[C@@H](CCCCN)C(=O)N[C@@H](CCCNC(=N)N)C(=O)N[C@H](C(=O)N[C@H](C(=O)N[C@@H](CCC(=O)O)C(=O)N[C@@H](Cc1ccccc1)C(N)=O)[C@@H](C)CC)C(C)C)[C@@H](C)CC
Agonist EC50 (activating phase, InsP formation) [2]: 200 nM | Agonist Efficacy (% of full response to 300 nM CCK-8) [2]: < 10% | Agonist IC50 (inhibitory phase, InsP formation) [2]: 2000 nM

B4: P4pal-15F (Pal-HTLAASGRRYGHALF) (peptide)
peptide: Palmitoyl-HTLAASGRRYGHALF-NH2
SMILES: CCCCCCCCCCCCCCCC(=O)N[C@@H](Cc1c[nH]cn1)C(=O)N[C@H](C(=O)N[C@@H](CC(C)C)C(=O)N[C@@H](C)C(=O)N[C@@H](C)C(=O)N[C@@H](CO)C(=O)NCC(=O)N[C@@H](CCCNC(=N)N)C(=O)N[C@@H](CCCNC(=N)N)C(=O)N[C@@H](Cc1ccc(O)cc1)C(=O)NCC(=O)N[C@@H](Cc1c[nH]cn1)C(=O)N[C@@H](C)C(=O)N[C@@H](CC(C)C)C(=O)N[C@@H](Cc1ccccc1)C(N)=O)[C@@H](C)O
Antagonist IC50 (InsP formation, against 10 nM thrombin) (human PAR4 [3]): > 2000 nM

B5: S2pal-23F (Pal-KVRSSGIRVGSSKRKKSEKKVTF) (peptide)
peptide: Palmitoyl-KVRSSGIRVGSSKRKKSEKKVTF-NH2
SMILES: CCCCCCCCCCCCCCCC(=O)N[C@@H](CCCCN)C(=O)N[C@H](C(=O)N[C@@H](CCCNC(=N)N)C(=O)N[C@@H](CO)C(=O)N[C@@H](CO)C(=O)NCC(=O)N[C@H](C(=O)N[C@@H](CCCNC(=N)N)C(=O)N[C@H](C(=O)NCC(=O)N[C@@H](CO)C(=O)N[C@@H](CO)C(=O)N[C@@H](CCCCN)C(=O)N[C@@H](CCCNC(=N)N)C(=O)N[C@@H](CCCCN)C(=O)N[C@@H](CCCCN)C(=O)N[C@@H](CO)C(=O)N[C@@H](CCC(=O)O)C(=O)N[C@@H](CCCCN)C(=O)N[C@@H](CCCCN)C(=O)N[C@H](C(=O)N[C@H](C(=O)N[C@@H](Cc1ccccc1)C(N)=O)[C@@H](C)O)C(C)C)C(C)C)[C@@H](C)CC)C(C)C
Agonist EC50 (activating phase, InsP formation) [4]: 100 nM | Agonist Efficacy (% of full response to extracellular agonist) [4]: 15% | Agonist IC50 (inhibitory phase, InsP formation) [4]: 500 nM | Antagonist IC50 (InsP formation, against 1 µM …) [4]: 3000 nM

B6: P4pal-15 (Pal-HTLAASGRRYGHALR) (peptide)
peptide: Palmitoyl-HTLAASGRRYGHALR-NH2
SMILES: CCCCCCCCCCCCCCCC(=O)N[C@@H](Cc1c[nH]cn1)C(=O)N[C@H](C(=O)N[C@@H](CC(C)C)C(=O)N[C@@H](C)C(=O)N[C@@H](C)C(=O)N[C@@H](CO)C(=O)NCC(=O)N[C@@H](CCCNC(=N)N)C(=O)N[C@@H](CCCNC(=N)N)C(=O)N[C@@H](Cc1ccc(O)cc1)C(=O)NCC(=O)N[C@@H](Cc1c[nH]cn1)C(=O)N[C@@H](C)C(=O)N[C@@H](CC(C)C)C(=O)N[C@@H](CCCNC(=N)N)C(N)=O)[C@@H](C)O
IC50, inhibition of platelet aggregation to 200 micromolar AYPGKF (human PAR4 [1]): 600 nM | Antagonist IC50 (InsP formation, against 10 nM thrombin) (human PAR4 [3]): 3000 nM

B7: P1pal-19 (Pal-RCLSSSAVANRSKKSRALF) (peptide)
peptide: Palmitoyl-RCLSSSAVANRSKKSRALF-NH2
SMILES: CCCCCCCCCCCCCCCC(=O)N[C@@H](CCCNC(=N)N)C(=O)N[C@@H](CS)C(=O)N[C@@H](CC(C)C)C(=O)N[C@@H](CO)C(=O)N[C@@H](CO)C(=O)N[C@@H](CO)C(=O)N[C@@H](C)C(=O)N[C@H](C(=O)N[C@@H](C)C(=O)N[C@@H](CC(N)=O)C(=O)N[C@@H](CCCNC(=N)N)C(=O)N[C@@H](CO)C(=O)N[C@@H](CCCCN)C(=O)N[C@@H](CCCCN)C(=O)N[C@@H](CO)C(=O)N[C@@H](CCCNC(=N)N)C(=O)N[C@@H](C)C(=O)N[C@@H](CC(C)C)C(=O)N[C@@H](Cc1ccccc1)C(N)=O)C(C)C
platelet aggregation EC50 (human PAR1 [5]): 8000 nM | loss in efficacy against wild type PAR1 (InsP) (PAR1 S309P mutant): 4.3 fold | loss in potency against wild type PAR1 (InsP) (PAR1 S309P mutant): 13 fold | Agonist EC50 (activating phase, InsP formation) (human PAR1 [6]): 180 nM | Agonist Efficacy (% of full response to extracellular agonist) (human PAR1 [6]): 90% | Agonist IC50 (inhibitory phase, InsP formation) (human PAR1 [6]): 6500 nM

B8: P1pal-19Q (Pal-RCLSSSAVANQSQQSQALF) (peptide)
peptide: Palmitoyl-RCLSSSAVANQSQQSQALF-NH2
SMILES: CCCCCCCCCCCCCCCC(=O)N[C@@H](CCCNC(=N)N)C(=O)N[C@@H](CS)C(=O)N[C@@H](CC(C)C)C(=O)N[C@@H](CO)C(=O)N[C@@H](CO)C(=O)N[C@@H](CO)C(=O)N[C@@H](C)C(=O)N[C@H](C(=O)N[C@@H](C)C(=O)N[C@@H](CC(N)=O)C(=O)N[C@@H](CCC(N)=O)C(=O)N[C@@H](CO)C(=O)N[C@@H](CCC(N)=O)C(=O)N[C@@H](CCC(N)=O)C(=O)N[C@@H](CO)C(=O)N[C@@H](CCC(N)=O)C(=O)N[C@@H](C)C(=O)N[C@@H](CC(C)C)C(=O)N[C@@H](Cc1ccccc1)C(N)=O)C(C)C
loss in efficacy, platelet aggregation or InsP in PAR1-Rat1 cells (human PAR1 [5]): 2 fold | Agonist EC50 (activating phase, InsP formation) (human PAR1 [6]): 650 nM | Agonist Efficacy (% of full response to extracellular agonist) (human PAR1 [6]): 46% | Agonist IC50 (inhibitory phase, InsP formation) (human PAR1 [6]): 30000 nM
